According to article PMC6961540:
Read-outs that look alike come from different tables or passages of the source.

Legend:
Ago2 (HaloTag-Ago2) [1] = molecular target: T1, Ago2 (HaloTag-Ago2) (UniProt Q9UKV8 1-859); test: pull-down
[2] = molecular target: T2, Ago2 (Flag-tagged, HFT-Ago2) (UniProt Q9UKV8 1-859); test: filter binding
[3] = molecular target: T2, Ago2 (Flag-tagged, HFT-Ago2); test: competition filter binding
Ago2 (HaloTag-Ago2) [4] = molecular target: T1, Ago2 (HaloTag-Ago2); test: competition filter binding
[5] = molecular target: T2, Ago2 (Flag-tagged, HFT-Ago2); test: pull-down
[6] = molecular target: T2, Ago2 (Flag-tagged, HFT-Ago2); test: pull-down; remark: listed apart in the source

T2 sequence (Q9UKV8 whole entry): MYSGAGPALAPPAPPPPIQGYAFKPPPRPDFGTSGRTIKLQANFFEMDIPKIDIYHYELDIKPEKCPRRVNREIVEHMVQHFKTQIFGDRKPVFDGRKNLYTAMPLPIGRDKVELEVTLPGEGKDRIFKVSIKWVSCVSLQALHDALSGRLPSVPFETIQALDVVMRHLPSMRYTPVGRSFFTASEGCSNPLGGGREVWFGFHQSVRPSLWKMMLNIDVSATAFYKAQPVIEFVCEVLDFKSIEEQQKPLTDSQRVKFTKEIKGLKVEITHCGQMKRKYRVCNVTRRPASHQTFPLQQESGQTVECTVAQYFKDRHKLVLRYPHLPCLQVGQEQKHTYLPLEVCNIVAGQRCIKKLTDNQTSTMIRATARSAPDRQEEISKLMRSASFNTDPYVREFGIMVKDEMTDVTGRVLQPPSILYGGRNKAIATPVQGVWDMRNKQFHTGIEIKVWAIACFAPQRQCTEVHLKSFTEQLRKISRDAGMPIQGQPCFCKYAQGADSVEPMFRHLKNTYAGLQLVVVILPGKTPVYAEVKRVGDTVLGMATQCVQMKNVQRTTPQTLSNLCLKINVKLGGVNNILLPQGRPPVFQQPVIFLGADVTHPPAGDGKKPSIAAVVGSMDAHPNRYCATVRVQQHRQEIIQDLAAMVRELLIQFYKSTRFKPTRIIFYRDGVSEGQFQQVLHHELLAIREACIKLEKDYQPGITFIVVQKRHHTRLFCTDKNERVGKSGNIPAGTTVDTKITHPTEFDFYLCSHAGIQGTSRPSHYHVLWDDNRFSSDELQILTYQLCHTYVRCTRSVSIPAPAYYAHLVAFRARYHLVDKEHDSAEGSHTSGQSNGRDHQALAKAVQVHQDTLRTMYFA
T1 sequence (Q9UKV8 whole entry): as above

B1: miR122-v2 guide / target-1 (seed-only) (mixed)
RNA 1: UGGAGUGUGACACUAUCGAAAG
RNA 2: CCGCAAAAAAAAAAACACUCCUAA
modifications: 5'-phosphate on guide
binding result (Ago2 (HaloTag-Ago2) [1]): binds

B2: miR122-v1 guide / target-1 (seed + sup) (mixed)
RNA 1: UGGAGUGUGACAGCGGCGAAAG
RNA 2: CCGCAAAAAAAAAAACACUCCUAA
modifications: 5'-phosphate on guide
Kd [2]: 5.6 ± 0.5 pM
binding signal [3]: ~13 fold bound over target-2

B3: miR122-v2 guide / target-2 (seed + sup) (mixed)
RNA 1: UGGAGUGUGACACUAUCGAAAG
RNA 2: AUAGAAAAACACUCCUAA
modifications: 5'-phosphate on guide
binding signal (Ago2 (HaloTag-Ago2) [4]): ~5 fold bound over target-1

B4: miR122-v1 guide / target-1 with swapped (4 nt) bridge (mixed)
RNA 1: UGGAGUGUGACAGCGGCGAAAG
RNA 2: CCGCAAAAACACUCCUAA
modifications: 5'-phosphate on guide
binding result [5]: binds

B5: miR122-v1 guide / target-2 (seed-only) (mixed)
RNA 1: UGGAGUGUGACAGCGGCGAAAG
RNA 2: AUAGAAAAACACUCCUAA
modifications: 5'-phosphate on guide
binding result [6]: binds
